PMC12416549 (2024)
Changes are numbered by the printed parent chain. Numbers in names are those of the source. Each block holds one binder with its values, some of them ahead of it.

Biological target: T1, TNFR1 (Homo sapiens, UniProt P19438)
T1 chain: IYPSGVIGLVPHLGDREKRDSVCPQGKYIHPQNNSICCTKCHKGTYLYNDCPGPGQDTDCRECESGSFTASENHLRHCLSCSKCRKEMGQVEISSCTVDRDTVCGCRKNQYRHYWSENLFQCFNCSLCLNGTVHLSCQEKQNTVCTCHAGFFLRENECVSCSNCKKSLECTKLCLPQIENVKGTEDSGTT
Test: yeast display SC50

- apparent Kd (screen): 0.869 nM
B1: E54W (designed binder)
chain: SMEEEVEKAAKEYEKKKKEAIEKHLEKLKAKDKEAAERFLKELEEAAKEYAKDWAKTMSEEEAKRRAKKYKEKVLLSELSEEEQKEIKEAEEKLVRTILKYVEEAAK

- apparent Kd (screen): 0.956 nM
B2: E78M (designed binder)
chain: B1 chain with W54E, E78M

- apparent Kd (screen): 1.54 nM
B3: S77C (designed binder)
chain: B1 chain with W54E, S77C

- apparent Kd (screen): 1.05 nM
B4: V74G (designed binder)
chain: B1 chain with W54E, V74G

- apparent Kd (screen): 1.05 nM
B5: H24V (designed binder)
chain: B1 chain with H24V, W54E

- apparent Kd (screen): 0.49 nM
B6: V102M (designed binder)
chain: B1 chain with W54E, V102M

- apparent Kd (screen): 4.39 nM
B7: E49D (designed binder)
chain: B1 chain with E49D, W54E

- apparent Kd (screen): 5.84 nM
B8: D32M (designed binder)
chain: B1 chain with D32M, W54E

- apparent Kd (screen): 16.7 nM
B9: R66T (designed binder)
chain: B1 chain with W54E, R66T

- apparent Kd (screen): 1.27 nM
B10: A35Y (designed binder)
chain: B1 chain with A35Y, W54E

- apparent Kd (screen): 0.446 nM
B11: V6Y (designed binder)
chain: B1 chain with V6Y, W54E

- apparent Kd (screen): 1.54 nM
B12: K107E (designed binder)
chain: B1 chain with W54E, K107E

- apparent Kd (screen): 0.539 nM
B13: E5W (designed binder)
chain: B1 chain with E5W, W54E

- apparent Kd (screen): 0.593 nM
B14: A55L (designed binder)
chain: B1 chain with W54E, A55L

- apparent Kd (screen): 0.718 nM
B15: K16Q (designed binder)
chain: B1 chain with K16Q, W54E

- apparent Kd (screen): 0.593 nM
B16: A30W (designed binder)
chain: B1 chain with A30W, W54E

- apparent Kd (screen): 13.8 nM
B17: I87G (designed binder)
chain: B1 chain with W54E, I87G

- apparent Kd (screen): 3 nM
B18: K68F (designed binder)
chain: B1 chain with W54E, K68F

- apparent Kd (screen): 11.4 nM
B19: E91K (designed binder)
chain: B1 chain with W54E, E91K

- apparent Kd (screen): 0.49 nM
B20: L25F (designed binder)
chain: B1 chain with L25F, W54E

- apparent Kd (screen): 24.4 nM
B21: R66H (designed binder)
chain: B1 chain with W54E, R66H

- apparent Kd (screen): 11.4 nM
B22: E54C (designed binder)
chain: B1 chain with W54C

- apparent Kd (screen): 0.593 nM
B23: D32G (designed binder)
chain: B1 chain with D32G, W54E

- apparent Kd (screen): 3.3 nM
B24: E4P (designed binder)
chain: B1 chain with E4P, W54E

- apparent Kd (screen): 0.446 nM
B25: E82H (designed binder)
chain: B1 chain with W54E, E82H

- apparent Kd (screen): 5.84 nM
B26: I98H (designed binder)
chain: B1 chain with W54E, I98H

- apparent Kd (screen): 10.4 nM
B27: R66K (designed binder)
chain: B1 chain with W54E, R66K

- apparent Kd (screen): 6.43 nM
B28: E92C (designed binder)
chain: B1 chain with W54E, E92C

- apparent Kd (screen): 0.593 nM
B29: K48R (designed binder)
chain: B1 chain with K48R, W54E

- apparent Kd (screen): 0.446 nM
B30: K16M (designed binder)
chain: B1 chain with K16M, W54E

- apparent Kd (screen): 0.446 nM
B31: E19R (designed binder)
chain: B1 chain with E19R, W54E

- apparent Kd (screen): 3.3 nM
B32: L76K (designed binder)
chain: B1 chain with W54E, L76K

- apparent Kd (screen): 1.4 nM
B33: K68E (designed binder)
chain: B1 chain with W54E, K68E

- apparent Kd (screen): 0.956 nM
B34: E12C (designed binder)
chain: B1 chain with E12C, W54E

- apparent Kd (screen): 0.653 nM
B35: K27N (designed binder)
chain: B1 chain with K27N, W54E

- apparent Kd (screen): 12.5 nM
B36: A55D (designed binder)
chain: B1 chain with W54E, A55D

- apparent Kd (screen): 16.7 nM
B37: A63T (designed binder)
chain: B1 chain with W54E, A63T

- apparent Kd (screen): 3 nM
B38: A105M (designed binder)
chain: B1 chain with W54E, A105M

- apparent Kd (screen): 0.49 nM
B39: L43S (designed binder)
chain: B1 chain with L43S, W54E

- apparent Kd (screen): 1.27 nM
B40: E83H (designed binder)
chain: B1 chain with W54E, E83H

- apparent Kd (screen): 1.54 nM
B41: K93C (designed binder)
chain: B1 chain with W54E, K93C

- apparent Kd (screen): 11.4 nM
B42: S77P (designed binder)
chain: B1 chain with W54E, S77P

- apparent Kd (screen): 13.8 nM
B43: L28P (designed binder)
chain: B1 chain with L28P, W54E

- apparent Kd (screen): 3.63 nM
B44: E54A (designed binder)
chain: B1 chain with W54A

- apparent Kd (screen): 12.5 nM
B45: L79Y (designed binder)
chain: B1 chain with W54E, L79Y

- apparent Kd (screen): 0.869 nM
B46: K85H (designed binder)
chain: B1 chain with W54E, K85H

- apparent Kd (screen): 1.05 nM
B47: K27M (designed binder)
chain: B1 chain with K27M, W54E

- apparent Kd (screen): 0.368 nM
B48: A106W (designed binder)
chain: B1 chain with W54E, A106W

- apparent Kd (screen): 7.07 nM
B49: Y50W (designed binder)
chain: B1 chain with Y50W, W54E

- apparent Kd (screen): 0.446 nM
B50: E37R (designed binder)
chain: B1 chain with E37R, W54E

- apparent Kd (screen): 2.48 nM
B51: Q84N (designed binder)
chain: B1 chain with W54E, Q84N

- apparent Kd (screen): 7.78 nM
B52: A67M (designed binder)
chain: B1 chain with W54E, A67M

- apparent Kd (screen): 0.653 nM
B53: A30I (designed binder)
chain: B1 chain with A30I, W54E

- apparent Kd (screen): 0.49 nM
B54: K31R (designed binder)
chain: B1 chain with K31R, W54E

- apparent Kd (screen): 0.49 nM
B55: K71T (designed binder)
chain: B1 chain with W54E, K71T

- apparent Kd (screen): 1.05 nM
B56: K100W (designed binder)
chain: B1 chain with W54E, K100W

- apparent Kd (screen): 0.446 nM
B57: M2G (designed binder)
chain: B1 chain with M2G, W54E

- apparent Kd (screen): 13.8 nM
B58: E92Y (designed binder)
chain: B1 chain with W54E, E92Y

- apparent Kd (screen): 0.304 nM
B59: L79K (designed binder)
chain: B1 chain with W54E, L79K
